For assay [1], the target named is T1, human CD3ε/δ (ACRO systems, CDD-H52W1) (human, UniProt P07766 23-126; P04234 22-105).
T1 construct: bought recombinant heterodimer; also called human CD3 epsilon/delta; Human CD3ε/CD3δ
In words: serum-stability ELISA, Day 0 (reference). For orientation: An ELISA detects its analyte on a solid surface through an enzyme-linked reagent.

In assay [2] the target is T1, human CD3ε/δ (ACRO systems, CDD-H52W1). The assay is described as follows: serum-stability ELISA, Day 10 vs Day 0.
Experimental: (§1) The samples to be tested were centrifuged at 4° C. at 12000 rpm for 30 minutes to remove the precipitate. 200 μl of each sample to be tested (0.5 mg/ml) was collected in a 1.5 ml Eppendorf tube. An equal volume of human serum (GEMINI, H2OYOOK) was added, mixed thoroughly, and the mixture was incubated in a 37° C. constant temperature CO₂ incubator. For a total of 10 days, 40 μl samples was aspirated every day and stored at −20° C.
(§2) Enzyme-linked immunosorbent assay (ELISA) was used to test the bispecific antibodies' binding to human CEA and human CD3 epsilon/delta antigen. The steps are as follows: the antigen human CD3ε/δ (ACRO systems, CDD-H52W1) and the recombinant tumor antigen human CEA (CEACAM-5/CD66e, ACRO systems, CE5-H5226) were diluted to 1 μg/ml with PBS, and then added to the 96-well plate at 100 μl per well. The wells were coated overnight at 4° C. After washing 3 times with 0.05% PBST, 200 μl 5% skimmed milk powder was added to each well and incubated at 37° C. for 2 h. After washing 3 times with 0.05% PBST, 100 μl primary antibody sample (10 μg/ml) was added to each well, and incubated at 37° C. for 2 h. After washing 3 times with 0.05% PBST, 100 μl (1:6000) diluted secondary antibody goat anti-human Fc-HRP (sigma, A2170) was added to each well, incubated at room temperature for 1 h. After washing 8 times with 0.05% PBST, 50 μl TMB color developing solution was added to each well, and incubated at room temperature for 10-15 min. 50 μl 1 mM HCl was added to each well to stop the color development. 450 nm Absorbance (OD) was read.
(§3) The binding of antibodies to antigen was calculated according to the following formula: Binding (%)=[(ODdayn−ODb)/(ODday0−ODb)]×100%. ODdayn: experimental well (the protein was stored in the serum for n days); ODday0: control well (the protein was not stored in the serum); ODb: blank well (no primary antibody added).
The target is the same in assay [3]. The assay is described as follows: serum-stability ELISA, Day 1 vs Day 0.
Experimental: as §1, §2, §3
Assay [4] has the same target. The assay is described as follows: serum-stability ELISA, Day 7 vs Day 0.
Experimental: as §1, §2, §3
Assay [5] shares this target. The assay is described as follows: serum-stability ELISA, Day 6 vs Day 0.
Experimental: as §1, §2, §3
The target is the same in assay [6]. The assay is described as follows: serum-stability ELISA, Day 2 vs Day 0.
Experimental: as §1, §2, §3
The target is the same in assay [7]. In words: serum-stability ELISA, Day 9 vs Day 0.
Experimental: as §1, §2, §3
The target is the same in assay [8]. The assay is described as follows: serum-stability ELISA, Day 5 vs Day 0.
Experimental: as §1, §2, §3

B1: 308 (TA3), configuration of FIG. 1X (bispecific antibody)
heavy: EVQLVESGGGLVQPGGSLRLSCAASGYSFTGYTMNWVRQAPGKGLEWVALINPYKGVSTYNQKFKDRFTISVDKSKNTAYLQMNSLRAEDTAVYYCARSGYYGDSDWYFDVWGQGTLVTVSSASTKGPSVFPLAPCSRSTSESTAALGCLVKDYFPEPVTVSWNSGALTSGVHTFPAVLQSSGLYSLSSVVTVPSSSLGTKTYTCNVDHKPSNTKVDKRVESKYGPPCPPCPAPEAAGGPSVFLFPPKPKDTLMISRTPEVTCVVVDVSQEDPEVQFNWYVDGVEVHNAKTKPREEQFNSTYRVVSVLTVLHQDWLNGKEYKCKVSNKGLPSSIEKTISKAKGQPREPQVYTLPPCQEEMTKNQVSLWCLVKGFYPSDIAVEWESNGQPENNYKTTPPVLDSDGSFFLYSRLTVDKSRWQEGNVFSCSVMHEALHNHYTQKSLSLSLGGGGSGGGGSEVQLVESGGGFVQAGESLTLSCTSSTLTFTPYRMAWYRQAPGKQRDLVADISSGDGRTTNYADFAKGRFTISRDNIKNTVFLRMTNLKPEDTAVYYCNTFVSFVGIARSWGQGTQVTVSS
chain: ESKYGPPCPPCPAPEAAGGPSVFLFPPKPKDTLMISRTPEVTCVVVDVSQEDPEVQFNWYVDGVEVHNAKTKPREEQFNSTYRVVSVLTVLHQDWLNGKEYKCKVSNKGLPSSIEKTISKAKGQPREPQVCTLPPSQEEMTKNQVSLSCAVKGFYPSDIAVEWESNGQPENNYKTTPPVLDSDGSFFLVSRLTVDKSRWQEGNVFSCSVMHEALHNRFTQKSLSLSL
light: DIQMTQSPSSLSASVGDRVTITCRASQDIRNYLNWYQQKPGKAPKLLIYYTSRLESGVPSRFSGSGSGTDYTLTISSLQPEDFATYYCQQGNTLPWTFGQGTKVEIK
notes: not shown: kappa light chain constant domain (CL)
In the case of B1, the Binding % in assay [1] is 100%; in assay [2] it was 103%; in assay [3], 106%; in assay [4], 109%; in assay [5] it was 103%; in assay [6], 100%. In addition, the Binding % in assay [7] came to 110%; in assay [8], 107%.

B2: 310 (TA5), configuration of FIG. 1X (bispecific antibody)
heavy: DVQLVQSGAEVKKPGASVKVSCKASGYTFTRYTMHWVRQAPGQGLEWIGYINPSRGYTNYADSVKGRFTITTDKSTSTAYMELSSLRSEDTATYYCARYYDDHYCLDYWGQGTTVTVSSASTKGPSVFPLAPCSRSTSESTAALGCLVKDYFPEPVTVSWNSGALTSGVHTFPAVLQSSGLYSLSSVVTVPSSSLGTKTYTCNVDHKPSNTKVDKRVESKYGPPCPPCPAPEAAGGPSVFLFPPKPKDTLMISRTPEVTCVVVDVSQEDPEVQFNWYVDGVEVHNAKTKPREEQFNSTYRVVSVLTVLHQDWLNGKEYKCKVSNKGLPSSIEKTISKAKGQPREPQVYTLPPCQEEMTKNQVSLWCLVKGFYPSDIAVEWESNGQPENNYKTTPPVLDSDGSFFLYSRLTVDKSRWQEGNVFSCSVMHEALHNHYTQKSLSLSLGGGGSGGGGSEVQLVESGGGFVQAGESLTLSCTSSTLTFTPYRMAWYRQAPGKQRDLVADISSGDGRTTNYADFAKGRFTISRDNIKNTVFLRMTNLKPEDTAVYYCNTFVSFVGIARSWGQGTQVTVSS
chain: ESKYGPPCPPCPAPEAAGGPSVFLFPPKPKDTLMISRTPEVTCVVVDVSQEDPEVQFNWYVDGVEVHNAKTKPREEQFNSTYRVVSVLTVLHQDWLNGKEYKCKVSNKGLPSSIEKTISKAKGQPREPQVCTLPPSQEEMTKNQVSLSCAVKGFYPSDIAVEWESNGQPENNYKTTPPVLDSDGSFFLVSRLTVDKSRWQEGNVFSCSVMHEALHNRFTQKSLSLSL
light: DIVLTQSPATLSLSPGERATLSCRASQSVSYMNWYQQKPGKAPKRWIYDTSKVASGVPARFSGSGSGTDYSLTINSLEAEDAATYYCQQWSSNPLTFGGGTKVEIK
notes: VL row printed 'TAS VL', read as TA5 VL; full chains assembled from parts; not shown: kappa light chain constant domain (CL)
B2: the Binding % in assay [1] was found to be 100%; in assay [2], 101%; in assay [3] it was 96.1%; in assay [4], 89.2%; in assay [5], 93.2%; in assay [6] it was 90.2%. Also, the Binding % worked out at 90.3% in assay [7] and 92.2% in assay [8].

B3: 312 (TA7), configuration of FIG. 1X (bispecific antibody)
heavy: EVQLVQSGAEVKKPGASVKVSCKASGFTFTSYYIHWVRQAPGQGLEWIGWIYPENDNTKYNEKFKDRVTITADTSTSTAYLELSSLRSEDTAVYYCARDGYSRYYFDYWGQGTLVTVSSASTKGPSVFPLAPCSRSTSESTAALGCLVKDYFPEPVTVSWNSGALTSGVHTFPAVLQSSGLYSLSSVVTVPSSSLGTKTYTCNVDHKPSNTKVDKRVESKYGPPCPPCPAPEAAGGPSVFLFPPKPKDTLMISRTPEVTCVVVDVSQEDPEVQFNWYVDGVEVHNAKTKPREEQFNSTYRVVSVLTVLHQDWLNGKEYKCKVSNKGLPSSIEKTISKAKGQPREPQVYTLPPCQEEMTKNQVSLWCLVKGFYPSDIAVEWESNGQPENNYKTTPPVLDSDGSFFLYSRLTVDKSRWQEGNVFSCSVMHEALHNHYTQKSLSLSLGGGGSGGGGSEVQLVESGGGFVQAGESLTLSCTSSTLTFTPYRMAWYRQAPGKQRDLVADISSGDGRTTNYADFAKGRFTISRDNIKNTVFLRMTNLKPEDTAVYYCNTFVSFVGIARSWGQGTQVTVSS
chain: ESKYGPPCPPCPAPEAAGGPSVFLFPPKPKDTLMISRTPEVTCVVVDVSQEDPEVQFNWYVDGVEVHNAKTKPREEQFNSTYRVVSVLTVLHQDWLNGKEYKCKVSNKGLPSSIEKTISKAKGQPREPQVCTLPPSQEEMTKNQVSLSCAVKGFYPSDIAVEWESNGQPENNYKTTPPVLDSDGSFFLVSRLTVDKSRWQEGNVFSCSVMHEALHNRFTQKSLSLSL
light: DIVMTQSPDSLAVSLGERATINCKSSQSLLNSRTRKNYLAWYQQKPGQSPKLLIYWTSTRKSGVPDRFSGSGSGTDFTLTISSLQAEDVAVYYCKQSFILRTFGQGTKVEIK
notes: as for B1
As to B3, the Binding % in assay [1] was found to be 100%; in assay [2], 104%; in assay [3], 103%; in assay [4], 98.2%; in assay [5], 102%; in assay [6] it was 106%. Also, the Binding % in assay [7] came out at 101%; in assay [8], 104%.

B4: 311 (TA6), configuration of FIG. 1X (bispecific antibody)
heavy: EVQLVQSGAEVKKPGASVKVSCKASGYTFTNYYIHWVRQAPGQGLEWIGWIYPGDGNTKYNEKFKGRATLTADTSTSTAYLELSSLRSEDTAVYYCARDSYSNYYFDYWGQGTLVTVSSASTKGPSVFPLAPCSRSTSESTAALGCLVKDYFPEPVTVSWNSGALTSGVHTFPAVLQSSGLYSLSSVVTVPSSSLGTKTYTCNVDHKPSNTKVDKRVESKYGPPCPPCPAPEAAGGPSVFLFPPKPKDTLMISRTPEVTCVVVDVSQEDPEVQFNWYVDGVEVHNAKTKPREEQFNSTYRVVSVLTVLHQDWLNGKEYKCKVSNKGLPSSIEKTISKAKGQPREPQVYTLPPCQEEMTKNQVSLWCLVKGFYPSDIAVEWESNGQPENNYKTTPPVLDSDGSFFLYSRLTVDKSRWQEGNVFSCSVMHEALHNHYTQKSLSLSLGGGGSGGGGSEVQLVESGGGFVQAGESLTLSCTSSTLTFTPYRMAWYRQAPGKQRDLVADISSGDGRTTNYADFAKGRFTISRDNIKNTVFLRMTNLKPEDTAVYYCNTFVSFVGIARSWGQGTQVTVSS
chain: ESKYGPPCPPCPAPEAAGGPSVFLFPPKPKDTLMISRTPEVTCVVVDVSQEDPEVQFNWYVDGVEVHNAKTKPREEQFNSTYRVVSVLTVLHQDWLNGKEYKCKVSNKGLPSSIEKTISKAKGQPREPQVCTLPPSQEEMTKNQVSLSCAVKGFYPSDIAVEWESNGQPENNYKTTPPVLDSDGSFFLVSRLTVDKSRWQEGNVFSCSVMHEALHNRFTQKSLSLSL
light: DIVMTQSPDSLAVSLGERATINCKSSQSLLNSRTRKNYLAWYQQKPGQPPKLLIYWASTRESGVPDRFSGSGSGTDFTLTISSLQAEDVAVYYCTQSFILRTFGQGTKVEIK
notes: as for B1
With B4, the Binding % in assay [1] stood at 100%; in assay [2], 101%; in assay [3] it was 105%; in assay [4], 101%; in assay [5] it was 104%; in assay [6], 105%. Also, the Binding % in assay [7] came out at 100%; in assay [8] it was 103%.

The record behind these values is patent publication US20240400715A1 (VIBRANT PHARMA, published 2024).
